The source of these data is US20160144003A1 (Scripps Research, published 2016).

Data set [1] deals with the molecule itself. Briefly: sedimentation equilibrium AUC, monomer-dimer self-association. Here is the method:
FIGS. 8A-8F show sedimentation equilibrium analysis of WT and CMT-causing mutant human GlyRS proteins. Three cells containing different concentrations of each protein sample were centrifuged at 9000 rpm (solid curved line), 14000 rpm (mixed-dash curved line), and 19000 rpm (dash curved line). Absorbance data for each cell was collected at 280 nm and 230 nm wavelength. The meniscus (vertical dot-dash line) in each cell was set manually, while the bottom (vertical dash line) was allowed to float. Data within the fit limits (vertical solid lines) was globally fitted to the monomer-dimer self-association model in SEDPHAT. Data beyond approximately 1.5 absorbance was omitted in case of non-linearity of the detection instrumentation. The fits for the 9000, 14000, and 19000 rpm data are represented by the solid, mixed dash, and dash lines respectively.
WT and mutant GlyRSs were cloned and expressed as described (see Xie et al., Acta Crystallogr Sect F Struct Biol Cryst Commun 62:1243-1246, 2006), and purified to more than 99% homogeneity in three steps: nickel affinity, Mono Q and size exclusion chromatography. Sedimentation equilibrium experiments were performed in a Beckman Optima XL-1 analytical ultracentrifuge with integrated optical systems. All protein samples (0.5 μM, 1.25 μM, 2.5 μM) were prepared in DPBS buffer (2.67 mM potassium chloride, 1.47 mM potassium phosphate monobasic, 137.93 mM sodium chloride and 8.06 mM sodium phosphate dibasic, pH 7.2) and purified by size exclusion chromatography immediately prior to centrifugation. The buffer density and viscosity, and the protein partial specific volume were determined by SEDPHAT (see Lebowitz et al., Protein Sci. 11:2067-2079, 2002). Samples (180 μL) in two-channel cells were centrifuged in a Beckman An-60 Ti rotor at speeds of […] at 4° C. Equilibrium was reached after 36 hours for each speed and verified by comparison with a second scan taken every 6 hours. Data was collected at 280 nm and […]. Data sets consisting of 18 curves per protein (3 concentrations, 3 rotor speeds and 2 wavelengths each) were analyzed by global fitting to the monomer-dimer self-association model using the program SEDPHAT (Id.).

Data set [2] has as its target T1, GFP-neuropilin (NRP1) fusion protein on transfected cells.
T1 construct: whole, on cells; also called GFP-NRP1; NRP1-EGFP
Kind of data set: cell counts of confocal images, N2a cells expressing GFP-NRP1 incubated with GlyRS. Here is the method:
Confocal microscopy analysis was performed to assess the influence of GlyRS and CMT-associated GlyRS mutants on neuropilin-mediated neurite outgrowth. Mouse neuroblastoma N2a cells were transfected with either control pEGFP or NRP1-EGFP. After 24 hours, the cells were plated onto Fibronectin coated coverslips. Then N2a cells were then incubated with or without 200 nM wild-type GlyRS or CMT-associated GlyRS mutants (L129P, G240R, G526R) at 4° C. for 1 hour. Cells were then washed three times with DPBS buffer and fixed with 4% formaldehyde. The coverslips were mounted with Prolong Gold Antifade Reagent with DAPI (invitrogen) at 25° C. for overnight. Images were then taken using the Bio-Rad (Zeiss) Radiance 2100 Rainbow laser scanning confocal microscope (LSCM).

T1 sequence (O14786 22-923): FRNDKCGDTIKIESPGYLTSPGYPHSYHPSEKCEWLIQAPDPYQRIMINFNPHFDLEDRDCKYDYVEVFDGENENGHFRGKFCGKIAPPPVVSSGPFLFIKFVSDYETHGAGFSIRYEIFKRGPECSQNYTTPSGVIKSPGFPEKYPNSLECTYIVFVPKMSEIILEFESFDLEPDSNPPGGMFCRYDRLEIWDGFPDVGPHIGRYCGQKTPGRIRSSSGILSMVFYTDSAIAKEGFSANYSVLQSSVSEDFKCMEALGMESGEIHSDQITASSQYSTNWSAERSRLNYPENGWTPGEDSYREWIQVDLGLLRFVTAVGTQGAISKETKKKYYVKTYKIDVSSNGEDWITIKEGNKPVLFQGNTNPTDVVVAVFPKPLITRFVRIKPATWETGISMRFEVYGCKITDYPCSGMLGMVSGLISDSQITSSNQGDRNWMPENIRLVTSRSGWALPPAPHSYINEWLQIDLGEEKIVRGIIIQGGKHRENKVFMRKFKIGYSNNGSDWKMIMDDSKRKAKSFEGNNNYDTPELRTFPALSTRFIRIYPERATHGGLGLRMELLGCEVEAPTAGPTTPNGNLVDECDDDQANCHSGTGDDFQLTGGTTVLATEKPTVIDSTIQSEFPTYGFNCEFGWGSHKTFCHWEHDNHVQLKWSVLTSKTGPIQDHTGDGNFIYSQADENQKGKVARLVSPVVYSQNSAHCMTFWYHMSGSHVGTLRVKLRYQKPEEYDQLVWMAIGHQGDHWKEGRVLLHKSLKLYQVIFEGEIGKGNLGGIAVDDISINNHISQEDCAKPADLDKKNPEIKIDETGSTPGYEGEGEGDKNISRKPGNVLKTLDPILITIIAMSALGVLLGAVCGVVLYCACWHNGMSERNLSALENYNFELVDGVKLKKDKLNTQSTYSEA

B1: wild-type human glycyl-tRNA synthetase (GlyRS) (enzyme)
chain: MDGAGAEEVLAPLRLAVRQQGDLVRKLKEDKAPQVDVDKAVAELKARKRVLEAKELALQPKDDIVDRAKMEDTLKRRFFYDQAFAIYGGVSGLYDFGPVGCALKNNIIQTWRQHFIQEEQILEIDCTMLTPEPVLKTSGHVDKFADFMVKDVKNGECFRADHLLKAHLQKLMSDKKCSVEKKSEMESVLAQLDNYGQQELADLFVNYNVKSPITGNDLSPPVSFNLMFKTFIGPGGNMPGYLRPETAQGIFLNFKRLLEFNQGKLPFAAAQIGNSFRNEISPRSGLIRVREFTMAEIEHFVDPSEKDHPKFQNVADLHLYLYSAKAQVSGQSARKMRLGDAVEQGVINNTVLGYFIGRIYLYLTKVGISPDKLRFRQHMENEMAHYACDCWDAESKTSYGWIEIVGCADRSCYDLSCHARATKVPLVAEKPLKEPKTVNVVQFEPSKGAIGKAYKKDAKLVMEYLAICDECYITEMEMLLNEKGEFTIETEGKTFQLTKDMINVKRFQKTLYVEEVVPNVIEPSFGLGRIMYTVFEHTFHVREGDEQRTFFSFPAVVAPFKCSVLPLSQNQEFMPFVKELSEALTRHGVSHKVDDSSGSIGRRYARTDEIGVAFGVTIDFDTVNKTPHTATLRDRDSMRQIRAEISELPSIVQDLANGNITWADVEARYPLFEGQETGKKETIEE
notes: Used as a GlyRS-His fusion protein in the neuropilin assays; also called WT GlyRS; WT; not shown: His tag
One may read the Kd as the equilibrium constant for the complex coming apart. On to B1, for which the Kd in data set [1] came out at 560 nM. This molecule also had a Cell number % in data set [2] of 8.6%.

B2: human GlyRS S581L mutant (enzyme)
chain: MDGAGAEEVLAPLRLAVRQQGDLVRKLKEDKAPQVDVDKAVAELKARKRVLEAKELALQPKDDIVDRAKMEDTLKRRFFYDQAFAIYGGVSGLYDFGPVGCALKNNIIQTWRQHFIQEEQILEIDCTMLTPEPVLKTSGHVDKFADFMVKDVKNGECFRADHLLKAHLQKLMSDKKCSVEKKSEMESVLAQLDNYGQQELADLFVNYNVKSPITGNDLSPPVSFNLMFKTFIGPGGNMPGYLRPETAQGIFLNFKRLLEFNQGKLPFAAAQIGNSFRNEISPRSGLIRVREFTMAEIEHFVDPSEKDHPKFQNVADLHLYLYSAKAQVSGQSARKMRLGDAVEQGVINNTVLGYFIGRIYLYLTKVGISPDKLRFRQHMENEMAHYACDCWDAESKTSYGWIEIVGCADRSCYDLSCHARATKVPLVAEKPLKEPKTVNVVQFEPSKGAIGKAYKKDAKLVMEYLAICDECYITEMEMLLNEKGEFTIETEGKTFQLTKDMINVKRFQKTLYVEEVVPNVIEPSFGLGRIMYTVFEHTFHVREGDEQRTFFSFPAVVAPFKCSVLPLSQNQEFMPFVKELLEALTRHGVSHKVDDSSGSIGRRYARTDEIGVAFGVTIDFDTVNKTPHTATLRDRDSMRQIRAEISELPSIVQDLANGNITWADVEARYPLFEGQETGKKETIEE
notes: also called S581L GlyRS; not shown: His tag
B2: in data set [1], the Kd worked out at 190 nM and the “fold decrease in Kd of dimerization relative to WT GlyRS” value was 3 to 4 fold.

B3: human GlyRS G240R mutant (enzyme)
chain: MDGAGAEEVLAPLRLAVRQQGDLVRKLKEDKAPQVDVDKAVAELKARKRVLEAKELALQPKDDIVDRAKMEDTLKRRFFYDQAFAIYGGVSGLYDFGPVGCALKNNIIQTWRQHFIQEEQILEIDCTMLTPEPVLKTSGHVDKFADFMVKDVKNGECFRADHLLKAHLQKLMSDKKCSVEKKSEMESVLAQLDNYGQQELADLFVNYNVKSPITGNDLSPPVSFNLMFKTFIGPGGNMPRYLRPETAQGIFLNFKRLLEFNQGKLPFAAAQIGNSFRNEISPRSGLIRVREFTMAEIEHFVDPSEKDHPKFQNVADLHLYLYSAKAQVSGQSARKMRLGDAVEQGVINNTVLGYFIGRIYLYLTKVGISPDKLRFRQHMENEMAHYACDCWDAESKTSYGWIEIVGCADRSCYDLSCHARATKVPLVAEKPLKEPKTVNVVQFEPSKGAIGKAYKKDAKLVMEYLAICDECYITEMEMLLNEKGEFTIETEGKTFQLTKDMINVKRFQKTLYVEEVVPNVIEPSFGLGRIMYTVFEHTFHVREGDEQRTFFSFPAVVAPFKCSVLPLSQNQEFMPFVKELSEALTRHGVSHKVDDSSGSIGRRYARTDEIGVAFGVTIDFDTVNKTPHTATLRDRDSMRQIRAEISELPSIVQDLANGNITWADVEARYPLFEGQETGKKETIEE
notes: GlyRS-His fusion protein in the pull-down and cell assays; also called G240R GlyRS; not shown: His tag
B3: in data set [1], the Kd amounted to 11000 nM and the “fold increase in Kd of dimerization relative to WT GlyRS” value turned out to be 20 fold. The same molecule returned a Cell number % in data set [2] of 42%.

B4: human GlyRS L129P mutant (enzyme)
chain: MDGAGAEEVLAPLRLAVRQQGDLVRKLKEDKAPQVDVDKAVAELKARKRVLEAKELALQPKDDIVDRAKMEDTLKRRFFYDQAFAIYGGVSGLYDFGPVGCALKNNIIQTWRQHFIQEEQILEIDCTMPTPEPVLKTSGHVDKFADFMVKDVKNGECFRADHLLKAHLQKLMSDKKCSVEKKSEMESVLAQLDNYGQQELADLFVNYNVKSPITGNDLSPPVSFNLMFKTFIGPGGNMPGYLRPETAQGIFLNFKRLLEFNQGKLPFAAAQIGNSFRNEISPRSGLIRVREFTMAEIEHFVDPSEKDHPKFQNVADLHLYLYSAKAQVSGQSARKMRLGDAVEQGVINNTVLGYFIGRIYLYLTKVGISPDKLRFRQHMENEMAHYACDCWDAESKTSYGWIEIVGCADRSCYDLSCHARATKVPLVAEKPLKEPKTVNVVQFEPSKGAIGKAYKKDAKLVMEYLAICDECYITEMEMLLNEKGEFTIETEGKTFQLTKDMINVKRFQKTLYVEEVVPNVIEPSFGLGRIMYTVFEHTFHVREGDEQRTFFSFPAVVAPFKCSVLPLSQNQEFMPFVKELSEALTRHGVSHKVDDSSGSIGRRYARTDEIGVAFGVTIDFDTVNKTPHTATLRDRDSMRQIRAEISELPSIVQDLANGNITWADVEARYPLFEGQETGKKETIEE
notes: also called L129P GlyRS; L129P-His; not shown: His tag
For B4, in data set [1], binding was put at a Kd of 41000 nM and the “fold increase in Kd of dimerization relative to WT GlyRS” value was 73 fold. In data set [2], this molecule yielded a Cell number % of 37.7%.

B5: human GlyRS G526R mutant (enzyme)
chain: MDGAGAEEVLAPLRLAVRQQGDLVRKLKEDKAPQVDVDKAVAELKARKRVLEAKELALQPKDDIVDRAKMEDTLKRRFFYDQAFAIYGGVSGLYDFGPVGCALKNNIIQTWRQHFIQEEQILEIDCTMLTPEPVLKTSGHVDKFADFMVKDVKNGECFRADHLLKAHLQKLMSDKKCSVEKKSEMESVLAQLDNYGQQELADLFVNYNVKSPITGNDLSPPVSFNLMFKTFIGPGGNMPGYLRPETAQGIFLNFKRLLEFNQGKLPFAAAQIGNSFRNEISPRSGLIRVREFTMAEIEHFVDPSEKDHPKFQNVADLHLYLYSAKAQVSGQSARKMRLGDAVEQGVINNTVLGYFIGRIYLYLTKVGISPDKLRFRQHMENEMAHYACDCWDAESKTSYGWIEIVGCADRSCYDLSCHARATKVPLVAEKPLKEPKTVNVVQFEPSKGAIGKAYKKDAKLVMEYLAICDECYITEMEMLLNEKGEFTIETEGKTFQLTKDMINVKRFQKTLYVEEVVPNVIEPSFRLGRIMYTVFEHTFHVREGDEQRTFFSFPAVVAPFKCSVLPLSQNQEFMPFVKELSEALTRHGVSHKVDDSSGSIGRRYARTDEIGVAFGVTIDFDTVNKTPHTATLRDRDSMRQIRAEISELPSIVQDLANGNITWADVEARYPLFEGQETGKKETIEE
notes: GlyRS-His fusion protein in the pull-down assay; also called G526R GlyRS; not shown: His tag
For B5, the “fold decrease in Kd of dimerization relative to WT GlyRS” value in data set [1] was 3 to 4 fold. Further, the Cell number % in data set [2] worked out at 20.7%.

B6: human GlyRS G598A mutant (enzyme)
chain: MDGAGAEEVLAPLRLAVRQQGDLVRKLKEDKAPQVDVDKAVAELKARKRVLEAKELALQPKDDIVDRAKMEDTLKRRFFYDQAFAIYGGVSGLYDFGPVGCALKNNIIQTWRQHFIQEEQILEIDCTMLTPEPVLKTSGHVDKFADFMVKDVKNGECFRADHLLKAHLQKLMSDKKCSVEKKSEMESVLAQLDNYGQQELADLFVNYNVKSPITGNDLSPPVSFNLMFKTFIGPGGNMPGYLRPETAQGIFLNFKRLLEFNQGKLPFAAAQIGNSFRNEISPRSGLIRVREFTMAEIEHFVDPSEKDHPKFQNVADLHLYLYSAKAQVSGQSARKMRLGDAVEQGVINNTVLGYFIGRIYLYLTKVGISPDKLRFRQHMENEMAHYACDCWDAESKTSYGWIEIVGCADRSCYDLSCHARATKVPLVAEKPLKEPKTVNVVQFEPSKGAIGKAYKKDAKLVMEYLAICDECYITEMEMLLNEKGEFTIETEGKTFQLTKDMINVKRFQKTLYVEEVVPNVIEPSFGLGRIMYTVFEHTFHVREGDEQRTFFSFPAVVAPFKCSVLPLSQNQEFMPFVKELSEALTRHGVSHKVDDSSASIGRRYARTDEIGVAFGVTIDFDTVNKTPHTATLRDRDSMRQIRAEISELPSIVQDLANGNITWADVEARYPLFEGQETGKKETIEE
notes: Only in the dimerization measurement (sedimentation equilibrium); also called G598A GlyRS; not shown: the tag is not described
Regarding B6, the dissociation constant Kd in data set [1] is 390 nM.
